Test results: patent US10131702B2, “Glucagon-GLP-1-GIP triple agonist compounds” (priority 2013, dated 2018)
Read-outs that look alike come from different tables or passages of the source. Numbered stars: 1 amine (or outer) side, 2 acyl side, 3 side chain; on linkers, the order of the positions; unused ones are H or OH. Square brackets hold non-standard residues; d marks the D form. Side chains are listed from the residue outwards. Peptide text beside a SMILES is read from it. * marks the point of attachment. γGlu = O=C(O)[C@H](CCC(=O)[*:2])N[*:1]; Stearoyl = CCCCCCCCCCCCCCCCCC(=O)*; Palmitoyl = CCCCCCCCCCCCCCCC(=O)*; Aib = CC(C)(N)C(=O)O

Legend:
[1] = target: T1, human GLP-1 R (Homo sapiens, UniProt P43220); assay: cAMP induction in HEK293 cells expressing human GLP-1 R (AlphaScreen cAMP kit); type: cell-based; settings: average EC50, cAMP, HEK293 cells expressing human GLP-1 R, read-out: GLP1 R (EC50 in nM)
T1 construct: expressed in transfected cells
T1 sequence (P43220 24-463): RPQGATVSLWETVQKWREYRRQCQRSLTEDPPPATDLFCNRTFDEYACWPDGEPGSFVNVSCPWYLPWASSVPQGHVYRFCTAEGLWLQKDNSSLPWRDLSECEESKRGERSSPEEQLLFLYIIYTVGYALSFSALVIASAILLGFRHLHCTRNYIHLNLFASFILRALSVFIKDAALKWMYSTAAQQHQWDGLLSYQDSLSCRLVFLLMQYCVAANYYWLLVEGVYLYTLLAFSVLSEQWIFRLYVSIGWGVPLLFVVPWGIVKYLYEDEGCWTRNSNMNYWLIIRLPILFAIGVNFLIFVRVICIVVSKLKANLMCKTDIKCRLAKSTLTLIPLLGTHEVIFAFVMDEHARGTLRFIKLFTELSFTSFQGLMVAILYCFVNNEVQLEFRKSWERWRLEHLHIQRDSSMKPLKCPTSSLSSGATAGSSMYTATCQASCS
Procedure: (§1) Briefly, HEK293 cells expressing the human GIP R, GLP-1 R or GCG R (stable cell lines generated through transfection of the cDNA for human GIP R, GLP-1 R or GCG R and selection of stable clones) were seeded at 30,000 cells/well in 96-well microtiter plates coated with 0.01% poly-L-lysine, and grown for 1 day in culture in 200 μl growth medium (DMEM, 10% FCS, Penicillin (100 IU/ml), Streptomycin (100 μg/ml)). On the day of analysis, growth medium was removed and the cells were washed once with 150 μl Tyrode's buffer (Tyrode's Salts (9.6 g/l), 10 mM HEPES, pH 7.4). […] The Assay buffer was removed and cells are lysed in 80 μl Lysis buffer (0.1% w/v BSA, 5 mM HEPES, 0.3% v/v Tween-20) per well. From each well 10 μl of lysed cells were transferred to a 384-well plate and mixed with 15 μl bead-mix (1 Unit/15 μl anti-cAMP Acceptor Beads, 1 Unit/15 μl Donor Beads, and 1 Unit/15 μl Biotinylated cAMP in Assay Buffer). The plates were mixed and incubated in the dark for an hour at room temperature before measuring using an Envision™ plate reader (Perkin-Elmer).
(§2) The resulting cAMP curves were plotted as absolute cAMP concentrations (nM) over log (test compound concentration) and analyzed using the curve fitting program XLfit.
(§3) Parameters calculated to describe both the potency as well as the agonistic activity of each test compound on the receptors were:
(§4) EC50, a concentration resulting in a half-maximal elevation of cAMP levels, reflecting the potency of the test compound.

[2] = target: T2, human GIP R (Homo sapiens, UniProt P48546); assay: cAMP induction in HEK293 cells expressing human GIP R (AlphaScreen cAMP kit); type: cell-based; settings: GIP R (EC50 in nM)
T2 construct: expressed in transfected cells
T2 sequence (P48546 22-466): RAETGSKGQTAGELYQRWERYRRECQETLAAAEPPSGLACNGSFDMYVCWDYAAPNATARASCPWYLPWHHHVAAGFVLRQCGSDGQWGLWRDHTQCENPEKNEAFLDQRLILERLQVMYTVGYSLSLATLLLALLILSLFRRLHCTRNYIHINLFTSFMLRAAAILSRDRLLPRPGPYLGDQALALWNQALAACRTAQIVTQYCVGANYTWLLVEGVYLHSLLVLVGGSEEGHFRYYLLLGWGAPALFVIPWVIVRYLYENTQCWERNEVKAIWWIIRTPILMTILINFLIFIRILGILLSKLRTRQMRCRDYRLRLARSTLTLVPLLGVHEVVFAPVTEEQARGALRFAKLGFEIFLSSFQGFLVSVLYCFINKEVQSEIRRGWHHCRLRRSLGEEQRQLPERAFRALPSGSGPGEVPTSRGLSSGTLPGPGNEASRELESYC

[3] = target: T3, human GCG R (Homo sapiens, UniProt P47871); assay: cAMP induction in HEK293 cells expressing human GCG R (AlphaScreen cAMP kit); type: cell-based
T3 construct: expressed in transfected cells
T3 sequence (P47871 26-477): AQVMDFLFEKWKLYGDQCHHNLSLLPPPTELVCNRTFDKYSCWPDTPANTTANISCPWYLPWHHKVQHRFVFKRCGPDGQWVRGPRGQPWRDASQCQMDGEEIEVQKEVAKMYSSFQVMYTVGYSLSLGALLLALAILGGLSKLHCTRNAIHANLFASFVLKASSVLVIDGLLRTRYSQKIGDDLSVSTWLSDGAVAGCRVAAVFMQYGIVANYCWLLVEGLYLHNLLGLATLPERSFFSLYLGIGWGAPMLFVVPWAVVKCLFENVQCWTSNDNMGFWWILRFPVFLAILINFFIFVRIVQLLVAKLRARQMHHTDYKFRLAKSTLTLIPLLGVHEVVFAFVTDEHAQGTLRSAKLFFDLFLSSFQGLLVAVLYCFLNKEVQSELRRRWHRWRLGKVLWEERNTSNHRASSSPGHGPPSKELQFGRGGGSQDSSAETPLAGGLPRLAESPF
Procedure: as §1, §2, §3, §4

[4] = target: T4, human GIP receptor (human, UniProt P48546 22-466); assay: cell-based or functional assay
T4 sequence: T2 sequence (P48546 22-466)

[5] = target: T5, human glucagon receptor (human, UniProt P47871 26-477); assay: cell-based or functional assay
T5 sequence (P47871 26-477): as above

[6] = target: T6, human glucagon-like peptide 1 receptor (human, UniProt P43220 24-463); assay: cell-based or functional assay
[7] = target: T4, human GIP receptor; assay: cell-based or functional assay; remark: listed apart in the source
[8] = target: T5, human glucagon receptor; assay: cell-based or functional assay; remark: listed apart in the source
[9] = target: T6, human glucagon-like peptide 1 receptor; assay: cell-based or functional assay; remark: listed apart in the source
[10] = Table 2b (most comprehensive data)
[11] = Table 2b (most comprehensive data), average EC50, cAMP

## CC(C)C[C@H](NC(=O)[C@H](C)NC(=O)[C@H](CCCCN)NC(=O)[C@H](CO)NC(=O)[C@H](Cc1ccc(O)cc1)NC(=O)[C@H](CC(=O)O)NC(=O)[C@H](CO)NC(=O)[C@@H](NC(=O)[C@H](Cc1ccccc1)NC(=O)[C@@H](NC(=O)CNC(=O)[C@H](CCC(N)=O)NC(=O)C(C)(C)NC(=O)[C@@H](N)Cc1ccc(O)cc1)[C@@H](C)O)[C@@H](C)O)C(=O)N[C@@H](CC(=O)O)C(=O)N[C@@H](CCC(=O)O)C(=O)N[C@@H](CCCCN)C(=O)N[C@@H](C)C(=O)N[C@@H](C)C(=O)N[C@@H](CCCCN)C(=O)N[C@@H](CCC(=O)O)C(=O)N[C@@H](Cc1ccccc1)C(=O)N[C@H](C(=O)N[C@@H](CCC(=O)O)C(=O)N[C@@H](Cc1c[nH]c2ccccc12)C(=O)N[C@@H](CC(C)C)C(=O)N[C@@H](CC(C)C)C(=O)N[C@@H](CO)C(=O)N[C@@H](C)C(N)=O)C(C)C [Compound 21] (HELM PEPTIDE1{Y.[Aib].Q.G.T.F.T.S.D.Y.S.K.A.L.D.E.K.A.A.K.E.F.V.E.W.L.L.S.A.[am]}$$$$V2.0)
[1]; Table 2
  EC50: 0.014 nM
[1]; [10]
  EC50: 0.1 nM
[2]; Table 2, average EC50, cAMP
  EC50: 0.18 nM
[2]; [11]
  EC50: 0.015 nM
[3]
  EC50: 0.1 nM

## CC[C@H](C)[C@H](NC(=O)[C@H](CO)NC(=O)[C@H](Cc1ccc(O)cc1)NC(=O)[C@H](CC(=O)O)NC(=O)[C@H](CO)NC(=O)[C@@H](NC(=O)[C@H](Cc1ccccc1)NC(=O)[C@@H](NC(=O)CNC(=O)[C@H](CCC(N)=O)NC(=O)C(C)(C)NC(=O)[C@@H](N)Cc1ccc(O)cc1)[C@@H](C)O)[C@@H](C)O)C(=O)N[C@@H](Cc1ccc(O)cc1)C(=O)N[C@@H](CC(C)C)C(=O)N[C@@H](CC(=O)O)C(=O)N[C@@H](CO)C(=O)N[C@@H](CCCCN)C(=O)N[C@@H](C)C(=O)N[C@@H](C)C(=O)N[C@@H](Cc1c[nH]cn1)C(=O)N[C@@H](CC(=O)O)C(=O)N[C@@H](Cc1ccccc1)C(=O)N[C@H](C(=O)N[C@@H](CCC(=O)O)C(=O)N[C@@H](Cc1c[nH]c2ccccc12)C(=O)N[C@@H](CC(C)C)C(=O)N[C@@H](CC(C)C)C(=O)N[C@@H](CCCNC(=N)N)C(=O)N[C@@H](C)C(N)=O)C(C)C [Compound 12] (HELM PEPTIDE1{Y.[Aib].Q.G.T.F.T.S.D.Y.S.I.Y.L.D.S.K.A.A.H.D.F.V.E.W.L.L.R.A.[am]}$$$$V2.0)
[1]; Table 2
  EC50: 0.012 nM
[2]; Table 2, average EC50, cAMP
  EC50: 0.084 nM
[2]; [11]
  EC50: 0.012 nM
[3]
  EC50: 0.076 nM

## CC[C@H](C)[C@H](NC(=O)[C@H](CO)NC(=O)[C@H](Cc1ccc(O)cc1)NC(=O)[C@H](CC(=O)O)NC(=O)[C@H](CO)NC(=O)[C@@H](NC(=O)[C@H](Cc1ccccc1)NC(=O)[C@@H](NC(=O)CNC(=O)[C@H](CCC(N)=O)NC(=O)C(C)(C)NC(=O)[C@@H](N)Cc1ccc(O)cc1)[C@@H](C)O)[C@@H](C)O)C(=O)N[C@@H](Cc1ccc(O)cc1)C(=O)N[C@@H](CC(C)C)C(=O)N[C@@H](CC(=O)O)C(=O)N[C@@H](CCCCN)C(=O)N[C@@H](CCCCN)C(=O)N[C@@H](C)C(=O)N[C@@H](C)C(=O)N[C@@H](Cc1c[nH]cn1)C(=O)N[C@@H](CC(=O)O)C(=O)N[C@@H](Cc1ccccc1)C(=O)N[C@H](C(=O)N[C@@H](CCC(=O)O)C(=O)N[C@@H](Cc1c[nH]c2ccccc12)C(=O)N[C@@H](CC(C)C)C(=O)N[C@@H](CC(C)C)C(=O)N[C@@H](CO)C(=O)N[C@@H](C)C(N)=O)C(C)C [Compound 19] (HELM PEPTIDE1{Y.[Aib].Q.G.T.F.T.S.D.Y.S.I.Y.L.D.K.K.A.A.H.D.F.V.E.W.L.L.S.A.[am]}$$$$V2.0)
[1]; Table 2
  EC50: 0.013 nM
[1]; [10]
  EC50: 0.024 nM
[2]; Table 2, average EC50, cAMP
  EC50: 0.032 nM
[2]; [11]
  EC50: 0.013 nM
[3]
  EC50: 0.024 nM

## CC(C)C[C@H](NC(=O)[C@H](CC(C)C)NC(=O)[C@H](Cc1c[nH]c2ccccc12)NC(=O)[C@H](CCC(=O)O)NC(=O)[C@@H](NC(=O)[C@H](Cc1ccccc1)NC(=O)[C@H](CC(=O)O)NC(=O)[C@H](Cc1c[nH]cn1)NC(=O)[C@H](C)NC(=O)[C@H](C)NC(=O)[C@H](CCCCN)NC(=O)[C@H](CO)NC(=O)[C@H](CC(=O)O)NC(=O)[C@H](CC(C)C)NC(=O)[C@H](Cc1ccc(O)cc1)NC(=O)[C@H](CCCCN)NC(=O)[C@H](CO)NC(=O)[C@H](Cc1ccc(O)cc1)NC(=O)[C@H](CC(=O)O)NC(=O)[C@H](CO)NC(=O)[C@@H](NC(=O)[C@H](Cc1ccccc1)NC(=O)[C@@H](NC(=O)CNC(=O)[C@H](CCC(N)=O)NC(=O)C(C)(C)NC(=O)[C@@H](N)Cc1ccc(O)cc1)[C@@H](C)O)[C@@H](C)O)C(C)C)C(=O)N[C@@H](CCCNC(=N)N)C(=O)N[C@@H](C)C(N)=O [Compound 3] (HELM PEPTIDE1{Y.[Aib].Q.G.T.F.T.S.D.Y.S.K.Y.L.D.S.K.A.A.H.D.F.V.E.W.L.L.R.A.[am]}$$$$V2.0)
[1]; Table 2
  EC50: 0.015 nM
[1]; [10]
  EC50: 0.022 nM
[2]; Table 2, average EC50, cAMP
  EC50: 0.13 nM
[2]; [11]
  EC50: 0.015 nM
[3]
  EC50: 0.022 nM

## H-YSQGTFTSDYSKYLDSKAAHDFVEWLLRA-NH2 [Compound 1]
[4]
  EC50 (cAMP induction): 0.38 nM
[5]
  EC50 (cAMP induction): 0.013 nM
[6]
  EC50 (cAMP induction): 0.033 nM
[7]
  EC50 (cAMP induction): 0.033 nM
[8]
  EC50 (cAMP induction): 0.013 nM
[9]
  EC50 (cAMP induction): 0.013 nM

## H-Y[Aib]QGTFTSDYSKYLDSK([γGlu-Palmitoyl])AAHDFVEWLLSA-NH2 [Compound 2]
[4]
  EC50 (cAMP induction): 0.35 nM
[5]
  EC50 (cAMP induction): 0.046 nM
[6]
  EC50 (cAMP induction): 0.089 nM
[7]
  EC50 (cAMP induction): 0.089 nM
[8]
  EC50 (cAMP induction): 0.046 nM
[9]
  EC50 (cAMP induction): 0.046 nM

## H-Y[Aib]QGTFTSDYSIALEKK([Peg3-Peg3-γGlu-Stearoyl])AQRAFVEWLLAQK-NH2 [Compound 46]
[7]
  EC50 (cAMP induction): 0.011 nM
[8]
  EC50 (cAMP induction): 0.13 nM
[9]
  EC50 (cAMP induction): 0.16 nM

B1: Compound 3 (peptide)
peptide: YAQGTFTSDYSKYLDSKAAHDFVEWLLRA
HELM: PEPTIDE1{Y.[Aib].Q.G.T.F.T.S.D.Y.S.K.Y.L.D.S.K.A.A.H.D.F.V.E.W.L.L.R.A.[am]}$$$$V2.0
SMILES: CC(C)C[C@H](NC(=O)[C@H](CC(C)C)NC(=O)[C@H](Cc1c[nH]c2ccccc12)NC(=O)[C@H](CCC(=O)O)NC(=O)[C@@H](NC(=O)[C@H](Cc1ccccc1)NC(=O)[C@H](CC(=O)O)NC(=O)[C@H](Cc1c[nH]cn1)NC(=O)[C@H](C)NC(=O)[C@H](C)NC(=O)[C@H](CCCCN)NC(=O)[C@H](CO)NC(=O)[C@H](CC(=O)O)NC(=O)[C@H](CC(C)C)NC(=O)[C@H](Cc1ccc(O)cc1)NC(=O)[C@H](CCCCN)NC(=O)[C@H](CO)NC(=O)[C@H](Cc1ccc(O)cc1)NC(=O)[C@H](CC(=O)O)NC(=O)[C@H](CO)NC(=O)[C@@H](NC(=O)[C@H](Cc1ccccc1)NC(=O)[C@@H](NC(=O)CNC(=O)[C@H](CCC(N)=O)NC(=O)C(C)(C)NC(=O)[C@@H](N)Cc1ccc(O)cc1)[C@@H](C)O)[C@@H](C)O)C(C)C)C(=O)N[C@@H](CCCNC(=N)N)C(=O)N[C@@H](C)C(N)=O
[4]
  EC50 (cAMP induction): 0.13 nM
[5]
  EC50 (cAMP induction): 0.022 nM
[6]
  EC50 (cAMP induction): 0.015 nM
[7]
  EC50 (cAMP induction): 0.015 nM
[8]
  EC50 (cAMP induction): 0.022 nM
[9]
  EC50 (cAMP induction): 0.022 nM
